Reference: paper PMC12827253 (2025)

Assays:
human recombinant RIPK3 [1] = biological target: T1, human recombinant RIPK3 (human, UniProt Q9Y572 1-518); experiment: BLI; average
human recombinant RIPK3 [2] = biological target: T1, human recombinant RIPK3; experiment: BLI; fit at 3 nM GADD45β
human recombinant RIPK3 [3] = biological target: T1, human recombinant RIPK3; experiment: BLI; fit at 6 nM GADD45β
human recombinant RIPK3 [4] = biological target: T1, human recombinant RIPK3; experiment: BLI; fit at 12 nM GADD45β
human recombinant RIPK3 [5] = biological target: T1, human recombinant RIPK3; experiment: BLI; fit at 25 nM GADD45β
human recombinant RIPK3 [6] = biological target: T1, human recombinant RIPK3; experiment: BLI; fit at 50 nM GADD45β
human recombinant RIPK3 [7] = biological target: T1, human recombinant RIPK3; experiment: BLI; fit at 100 nM GADD45β

T1 sequence (Q9Y572 whole entry): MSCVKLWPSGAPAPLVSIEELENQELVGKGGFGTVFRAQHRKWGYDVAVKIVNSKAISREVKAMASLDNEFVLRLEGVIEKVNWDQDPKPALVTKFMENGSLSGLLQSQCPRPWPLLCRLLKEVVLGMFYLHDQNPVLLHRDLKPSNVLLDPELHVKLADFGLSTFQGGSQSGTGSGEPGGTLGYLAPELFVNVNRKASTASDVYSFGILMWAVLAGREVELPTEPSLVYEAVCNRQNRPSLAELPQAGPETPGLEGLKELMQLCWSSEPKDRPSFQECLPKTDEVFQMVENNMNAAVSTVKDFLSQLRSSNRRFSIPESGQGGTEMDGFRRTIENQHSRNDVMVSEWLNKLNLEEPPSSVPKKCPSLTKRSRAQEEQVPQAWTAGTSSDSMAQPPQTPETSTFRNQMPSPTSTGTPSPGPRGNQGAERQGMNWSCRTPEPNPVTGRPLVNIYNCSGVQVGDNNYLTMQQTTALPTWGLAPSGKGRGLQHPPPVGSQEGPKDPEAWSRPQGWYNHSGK

B1: recombinant human GADD45β (natural protein)
chain: MTLEELVACDNAAQKMQTVTAAVEELLVAAQRQDRLTVGVYESAKLMNVDPDSVVLCLLAIDEEEEDDIALQIHFTLIQSFCCDNDINIVRVSGMQRLAQLLGEPAETQGTTEARDLHCLLVTNPHTDAWKSHGLVEVASYCEESRGNNQWVPYISLQER
Human recombinant RIPK3 [1]
  koff: 0.000546 s⁻¹
Human recombinant RIPK3 [2]
  Kd: 0.111 nM
Human recombinant RIPK3 [3]
  Kd: 0.61 nM
Human recombinant RIPK3 [4]
  Kd: 1.36 nM
Human recombinant RIPK3 [5]
  Kd: 1.96 nM
Human recombinant RIPK3 [6]
  Kd: 2.85 nM
Human recombinant RIPK3 [7]
  Kd: 3.49 nM
